Assay results published in patent US20130071428A1.

Assays:
[1] = molecular target: J Z F I G I T E L K K L E S K I N K V F (Clostridium tetani)
[2] = molecular target: J Z SKFIGITELKKLESKINKVF (Clostridium tetani)
[3] = molecular target: J Z Z F I G I T E L K K L E S K I N K V F (Clostridium tetani)
[4] = molecular target: J Z Z SKFIGITELKKLESKINKVF (Clostridium tetani)
[5] = molecular target: … (18-mer) with Ahx-Lys(biotin) (Clostridium tetani)
[6] = molecular target: … (18-mer) with Ahx-Lys(biotin) (Clostridium tetani); assay: Tettox ELISA, biotinylated peptide on streptavidin plate
[7] = molecular target: b1, neg contr. (Clostridium tetani); assay: Tettox ELISA, negative control peptide; antibody source not named in Table 4

TetaQuin® (antibody)
OD (column without a head) [1]: 0.17 OD | OD (column without a head) [2]: 0.28 OD | OD (column without a head) [3]: 0.22 OD | OD (column without a head) [4]: 0.47 OD | ELISA OD (Ala scan of …, # 10): 1.06 OD | ELISA OD (Ala scan of …, # 11): 0.7 OD | ELISA OD (Ala scan of …, # 12): 0.85 OD | ELISA OD (Ala scan of …, # 13): 1.27 OD | ELISA OD (Ala scan of …, # 14): 1.1 OD | ELISA OD (Ala scan of …, # 15): 0.88 OD | ELISA OD (Ala scan of …, # 16): 1.37 OD | ELISA OD (Ala scan of …, # 17): 1.3 OD | ELISA OD (Ala scan of …, # 18): 1.24 OD | ELISA OD (Ala scan of …, # 19): 1.26 OD | ELISA OD (Ala scan of …, # 2): 1.12 OD | ELISA OD (Ala scan of …, # 3): 1.04 OD | ELISA OD (Ala scan of …, # 4): 0.65 OD | ELISA OD (Ala scan of …, # 5): 0.3 OD | ELISA OD (Ala scan of …, # 6): 0.38 OD | ELISA OD (Ala scan of …, # 7): 1.24 OD | ELISA OD (Ala scan of …, # 8): 0.9 OD | ELISA OD (Ala scan of …, # 9): 0.62 OD | ELISA OD [5]: 1.26 OD | OD [6]: 2.3 OD | OD (column without a head) [7]: 0.12 OD
